Results taken from patent publication US20250263778A1 (Hoffmann-La Roche, published 2025).
Numbering of substitutions follows the chain as printed. Read-outs that look alike come from different tables or passages of the source. Values belong to the binder of their own block, whether it stands above or below them.

How the values were obtained:
[1] = target: T1, human LRP8 (Low-density lipoprotein receptor-related protein 8), biotinylated (human, UniProt Q14114 33-826, limits assumed, biotinylated); experiment: ELISA, biotinylated human LRP8
T1 construct: also called hu-antigen; human antigen
T1 sequence (Q14114 33-826 limits assumed): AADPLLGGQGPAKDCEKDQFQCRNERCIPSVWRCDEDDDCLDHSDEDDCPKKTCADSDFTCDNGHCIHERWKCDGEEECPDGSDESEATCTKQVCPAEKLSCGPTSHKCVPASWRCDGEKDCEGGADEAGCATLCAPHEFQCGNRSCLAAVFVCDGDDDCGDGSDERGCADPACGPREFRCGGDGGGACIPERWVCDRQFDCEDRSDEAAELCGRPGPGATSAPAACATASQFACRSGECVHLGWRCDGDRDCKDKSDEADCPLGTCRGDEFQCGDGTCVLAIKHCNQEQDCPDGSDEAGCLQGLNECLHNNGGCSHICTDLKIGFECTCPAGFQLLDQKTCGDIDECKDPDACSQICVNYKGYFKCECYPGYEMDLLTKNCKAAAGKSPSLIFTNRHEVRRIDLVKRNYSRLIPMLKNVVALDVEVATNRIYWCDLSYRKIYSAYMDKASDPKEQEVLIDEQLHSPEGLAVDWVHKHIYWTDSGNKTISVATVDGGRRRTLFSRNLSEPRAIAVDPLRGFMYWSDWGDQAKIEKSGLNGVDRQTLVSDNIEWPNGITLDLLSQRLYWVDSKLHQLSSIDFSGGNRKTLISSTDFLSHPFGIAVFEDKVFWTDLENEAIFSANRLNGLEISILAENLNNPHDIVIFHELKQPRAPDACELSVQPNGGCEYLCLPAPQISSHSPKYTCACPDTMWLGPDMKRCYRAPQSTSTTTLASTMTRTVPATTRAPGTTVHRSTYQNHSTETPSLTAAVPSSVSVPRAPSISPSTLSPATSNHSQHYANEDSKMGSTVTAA

[2] = target: T2, murine LRP8, biotinylated (murine, UniProt Q924X6 29-858, limits assumed, biotinylated); experiment: ELISA, biotinylated murine LRP8
T2 construct: also called mu-antigen; murine antigen
T2 sequence (Q924X6 29-858 limits assumed): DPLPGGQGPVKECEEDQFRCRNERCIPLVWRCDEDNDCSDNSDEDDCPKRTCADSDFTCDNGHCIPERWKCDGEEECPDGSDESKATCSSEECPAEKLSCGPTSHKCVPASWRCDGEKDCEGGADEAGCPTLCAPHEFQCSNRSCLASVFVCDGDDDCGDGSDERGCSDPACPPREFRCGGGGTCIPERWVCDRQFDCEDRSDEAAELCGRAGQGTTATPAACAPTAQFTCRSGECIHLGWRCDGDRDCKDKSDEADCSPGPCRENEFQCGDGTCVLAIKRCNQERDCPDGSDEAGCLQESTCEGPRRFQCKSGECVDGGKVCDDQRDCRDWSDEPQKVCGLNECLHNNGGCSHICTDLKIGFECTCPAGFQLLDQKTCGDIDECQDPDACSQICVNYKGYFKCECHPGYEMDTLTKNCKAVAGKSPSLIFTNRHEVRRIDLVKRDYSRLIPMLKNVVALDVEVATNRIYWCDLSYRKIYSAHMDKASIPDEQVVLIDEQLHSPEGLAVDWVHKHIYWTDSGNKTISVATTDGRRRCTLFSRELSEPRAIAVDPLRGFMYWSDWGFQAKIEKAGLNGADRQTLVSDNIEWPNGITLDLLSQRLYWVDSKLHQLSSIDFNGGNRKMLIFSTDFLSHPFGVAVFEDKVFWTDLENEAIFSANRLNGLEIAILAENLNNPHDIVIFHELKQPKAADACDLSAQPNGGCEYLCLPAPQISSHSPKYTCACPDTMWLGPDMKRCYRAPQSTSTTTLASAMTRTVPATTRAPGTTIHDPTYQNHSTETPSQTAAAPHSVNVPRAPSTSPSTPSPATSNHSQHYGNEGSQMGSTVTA

[3] = target: T2, murine LRP8, biotinylated; experiment: ELISA, biotinylated murine LRP8; remark: listed apart in the source
[4] = target: T1, human LRP8 (Low-density lipoprotein …); experiment: ELISA, biotinylated human LRP8; remark: listed apart in the source
Protocol: The antigen, biotinylated human LRP8, was incubated with 5 μL sample containing the anti-LRP8 antibody at a concentration of 250 ng/mL in a total volume of 25 μL in PBS, 0.5% BSA and 0.05% Tween in a 384 w microtiterplate (Maxisorb (with Streptavidin, Nunc). After 1.5 hrs. incubation at 25° C. unbound antibody was removed by washing 6 times with 90 μL PBS (dispense and aspiration). The antigen-antibody complex was detected by an anti-rabbit antibody conjugated to POD (ECL anti-rabbit IgG-POD, Cat. No. NA9340V; POD=peroxidase). 20-30 min after adding 35 μL POD-substrate 3,3′,5,5′-tetramethyl benzidine (TMB; Piercenet, Cat. No. 34021) the optical density was determined at 370 nm. The EC₅₀ value was calculated with a four parameter logistic model using GraphPad Prism 6.0 software.

B1: BCC.763 (antibody, V domains shown)
VH: CQSVEESGGRLVTPGTPLTLTCTASGFSLSSYNMNWVRQAPGKGLEWIGYINKGGSAYYASWAKGRFTISRTSTTVDLKMTSPTTEDTATYFCVRSGGGGNLNLWGQGTLVTVSS
VL: AAVLTQTPSPVSAAVGGTVTISCQSSPNILGNYLSWFQQKPGQPPKLLIYYTSTLASGVPSRFKGSGSGTQFTLTISDVQCDDAATYYCLGVYRSDSDNVFGGGTEVVVK
notes: Rabbit IgG, kappa; also called antibody 763
EC50 [1]: < 0.02 µg/mL
EC50 [2]: < 0.02 µg/mL
EC50 [3]: < 0.02 µg/mL
EC50 [4]: < 0.02 µg/mL

B4: BCC.763-2 (antibody, V domains shown)
VH: B1 VH with E46A, R71K
VL: B1 VL
notes: recombinant rabbit IgG, kappa; Positions are Wolfguy indices; tie inferred; also called VH variant 2103:7194:16368 1:N:0:1
EC50 [1]: < 0.02 µg/mL
EC50 [2]: < 0.02 µg/mL

Continued, values first:

EC50 [1]: < 0.05 µg/mL
EC50 [2]: < 0.02 µg/mL
B2: BCC.763-4 (antibody, V domains shown)
VH: B1 VH with Y59D, S61N, T85P
VL: B1 VL
notes: recombinant rabbit IgG, kappa; Positions are Wolfguy indices; tie inferred; copies: 2 + 2

EC50 [1]: < 0.02 µg/mL
EC50 [2]: < 0.02 µg/mL
B3: BCC.763-1 (antibody, V domains shown)
VH: B1 VH with T85P
VL: B1 VL
notes: recombinant rabbit IgG, kappa; Positions are Wolfguy indices, not positions on the entry; tie inferred
